Tests used:
[1] = target: T1, His-DAPLE-CT (aa 1650-2028) F1675A (human, UniProt Q9P219 1650-2028); test: GST pulldown, purified proteins (FIG. 2C)
T1 construct: Recombinant, purified from E. coli; also called His-DAPLE-CT FA; DAPLE-CT FA; not shown: His tag and vector residues of pET28b
T1 sequence: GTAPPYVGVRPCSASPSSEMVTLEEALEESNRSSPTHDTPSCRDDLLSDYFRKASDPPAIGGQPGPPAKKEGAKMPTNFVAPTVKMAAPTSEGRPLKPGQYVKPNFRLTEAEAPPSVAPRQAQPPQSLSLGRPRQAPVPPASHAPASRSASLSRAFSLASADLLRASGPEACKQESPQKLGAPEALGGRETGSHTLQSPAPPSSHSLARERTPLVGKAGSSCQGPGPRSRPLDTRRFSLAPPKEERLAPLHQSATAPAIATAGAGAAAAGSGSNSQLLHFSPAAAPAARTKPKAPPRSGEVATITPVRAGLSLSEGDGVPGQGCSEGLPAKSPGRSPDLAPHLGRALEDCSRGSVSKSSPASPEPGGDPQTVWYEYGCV
Description: (§1) FIGS. 2A-2N. DAPLE binds and activates Gαi3 in vitro and in vivo via its GBA motif. (A) Prediction of molecular contacts critical for the DAPLE-Gαi interaction. Homology-based model of DAPLE's GBA motif (Red) bound to Gαi3 (green=Switch II, blue=ras-like domain, yellow, all-helical domain) with an enlarged section depicting a putative hydrophobic contact between DAPLE's F1675 and Gαi3's W211/F215. (B) Mutation of residues in the SWII region of Gαi3 disrupts DAPLE binding. Binding of His-DAPLE-CT to GST-Gαi3 WT, W211A or F215A was analyzed exactly as described in FIG. 1D. (C) Mutation of DAPLE F1675 to A abrogates Gαi3 binding. Binding of His-DAPLE-CT WT or F1675A (FA) to GST-Gαi3 was analyzed exactly as described in FIG. 1D. […] Myc-DAPLE WT or F1675A (FA) was expressed in Cos7 and binding to GST-Gαi3 analyzed exactly as described in FIG. 1E. […] Immune complexes were analyzed for DAPLE (myc) and Gαi3 (FLAG) by immunoblotting (IB). was monitored as positive Gαi3-binding control. […] The steady-state GTPase activity of His-Gαi3 alone (black) or in the presence of 2 μM His-DAPLE-CT (blue) was determined by measuring the production of [³²P]Pi at different time points as described in “Methods”. […] GTPγ³⁵S binding to His-Gαi3 at 15 min was determined in the presence of increasing concentrations (0-2 μM) of His-DAPLE-CT WT (blue) or His-DAPLE-CT FA (red).

[2] = target: T2, myc-DAPLE full length F1675A (human, UniProt Q9P219 1-2028); test: GST pulldown from Cos7 lysates (FIG. 2D)
T2 construct: Expressed in Cos7 cells; used as cell lysate; also called myc-DAPLE FA; DAPLE-FA; not shown: N-terminal myc tag of myc-pcDNA 3.1 (+)
Description: as §1

binding result [1]: no binding
binding result [2]: no binding
B1: GST-Gαi3 preloaded with GDP (inactive) (other, rat, UniProt P08753 1-354, looked up)
chain: MGCTLSAEDKAAVERSKMIDRNLREDGEKAAKEVKLLLLGAGESGKSTIVKQMKIIHEDGYSEDECKQYKVVVYSNTIQSIIAIIRAMGRLKIDFGEAARADDARQLFVLAGSAEEGVMTSELAGVIKRLWRDGGVQACFSRSREYQLNDSASYYLNDLDRISQTNYIPTQQDVLRTRVKTTGIVETHFTFKELYFKMFDVGGQRSERKKWIHCFEGVTAIIFCVALSDYDLVLAEDEEMNRMHESMKLFDSICNNKWFTDTSIILFLNKKDLFEEKIKRSPLTICYPEYTGSNTYEEAAAYIQCQFEDLNRRKDTKEVYTHFTCATDTKNVQFVFDAVTDVIIKNNLKECGLY
notes: Immobilized on glutathione beads; Same polypeptide as m11, other nucleotide state; also called GST-Gαi3 WT; not shown: glutathione S-transferase tag of the pGEX-4T-1 vector

Source: patent US20160362464A1 (University of California, published 2016)
